Reference: US20020049303A1 (OKLAHOMA MEDICAL RESEARCH FOUNDATION, published 2002)
Where no end group is shown, it is not given here.

What was measured:
[1] = molecular target: T1, recombinant memapsin 2 (M2pd), auto-activated from pro-M2pd at pH 4.0 (human, UniProt P56817 25-419, limits assumed); test: comparison of Ki of the inhibitor without P4 Glu with that of OM99-2
T1 construct: also called beta-secretase

[2] = molecular target: T1, recombinant memapsin 2 (M2pd), …; test: enzyme inhibition with a synthetic fluorogenic peptide substrate
Procedure: Enzyme activity was measured as described above, but with the addition of either OM99-1 or OM99-2.

[3] = molecular target: T1, recombinant memapsin 2 (M2pd), …; test: Ki quoted for the inhibitor used in the crystal trials; assay not described at this place

T1 sequence (P56817 25-419 limits assumed): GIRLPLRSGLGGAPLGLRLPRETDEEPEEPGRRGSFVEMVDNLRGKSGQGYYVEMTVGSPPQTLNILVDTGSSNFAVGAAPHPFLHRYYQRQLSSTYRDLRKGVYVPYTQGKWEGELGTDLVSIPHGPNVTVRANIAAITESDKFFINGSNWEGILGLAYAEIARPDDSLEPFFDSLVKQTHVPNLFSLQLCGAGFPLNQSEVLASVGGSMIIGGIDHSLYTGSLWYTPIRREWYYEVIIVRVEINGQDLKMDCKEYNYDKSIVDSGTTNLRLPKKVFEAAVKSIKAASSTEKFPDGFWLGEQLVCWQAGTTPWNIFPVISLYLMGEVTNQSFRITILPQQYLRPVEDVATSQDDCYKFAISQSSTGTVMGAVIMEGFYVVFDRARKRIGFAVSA

fold increase in Ki against OM99-2 [1] [fold] | Ki [2] [nM] | Ki [3] [nM] | Binder
10 | 30 |  | VNLAAEF (also: Leu-Ala peptide bond replaced by hydroxyethylene isostere -CH(OH)-CH2-, also called OMR99-1) [OM99-1: Val-Asn-Leu*Ala-Ala-Glu-Phe]
 |  | 10 | EVNLAAEF (also: Leu-Ala peptide bond replaced by hydroxyethylene isostere -CH(OH)-CH2-) [OM99-2: Glu-Val-Asn-Leu*Ala-Ala-Glu-Phe]
